Test results from the Human Domainome abundance scans (Beltran et al. 2025).
± gives the uncertainty stated by the source.

B1: Glucocorticoid receptor, residues 419 to 494; numbered along this chain, P04150 (parent)
chain: KLCLVCSDEASGCHYGVLTCGSCKVFFKRAVEGQHNYLCAGRNDCIIDKIRRKNCPACRYRKCLQAGMNLEARKTK

Variants of: B1
Test: abundance fitness (aPCA) (normalised: wild type 0, dead -1); higher = more abundant; growth selection in yeast, the domain comes from the species named
Conditions: Homo sapiens

| Variant | abundance fitness |
| --- | --- |
| T75G | 0.044 ± 0.042 |
| T75E | 0.032 ± 0.063 |
| T75C | -0.075 ± 0.061 |
| T75R | -0.01 ± 0.04 |
| T75S | 0.008 ± 0.043 |
| C20W | -0.78 ± 0.11 |
| C20Q | -1.04 ± 0.2 |
| C20L | -1.14 ± 0.17 |
| C20T | -0.87 ± 0.17 |
| C20V | -1.11 ± 0.2 |
| N36M | 0.008 ± 0.046 |
| N36P | -0.05 ± 0.047 |
| N36G | -0.057 ± 0.032 |
| L18Q | -0.087 ± 0.05 |
| L18T | -0.031 ± 0.058 |
| L18D | 0.062 ± 0.062 |
| L18K | -0.088 ± 0.044 |
| L2I | 0.114 ± 0.075 |
| L2F | 0.069 ± 0.058 |
| L2M | -0.024 ± 0.057 |
| C13W | -0.055 ± 0.041 |

| Variant | abundance fitness |
| --- | --- |
| C13T | 0.003 ± 0.038 |
| C13Q | 0.001 ± 0.049 |
| C13L | -0.007 ± 0.034 |
| C13D | -0.008 ± 0.069 |
| C13G | -0.154 ± 0.033 |
| C13E | 0.04 ± 0.04 |
| C45Q | -0.558 ± 0.2 |
| C45A | -0.797 ± 0.1 |
| C45K | -1.27 ± 0.41 |
| C45L | -0.917 ± 0.12 |
| C45Y | -0.704 ± 0.22 |
| V25E | 0.051 ± 0.076 |
| V25P | -0.614 ± 0.13 |
| V25D | 0.017 ± 0.086 |
| V25H | 0.06 ± 0.069 |
| V25N | -0.081 ± 0.09 |
| V25R | 0.085 ± 0.044 |
| V25Q | 0.015 ± 0.087 |
| V25C | 0.043 ± 0.063 |
| R73H | -0.109 ± 0.065 |
| R73K | 0.004 ± 0.052 |

| Variant | abundance fitness |
| --- | --- |
| R73M | 0.012 ± 0.05 |
| K1Y | -0.101 ± 0.083 |
| K1A | -0.066 ± 0.055 |
| K1E | -0.048 ± 0.054 |
| P56H | -0.111 ± 0.062 |
| P56T | -0.06 ± 0.044 |
| P56I | -0.19 ± 0.072 |
| A57E | -0.146 ± 0.039 |
| A57W | -0.669 ± 0.063 |
| A57M | -0.587 ± 0.066 |
| A57N | -0.266 ± 0.085 |
| R52A | -0.051 ± 0.04 |
| R52E | -0.028 ± 0.047 |
| R52K | -0.03 ± 0.047 |
| R52G | -0.016 ± 0.039 |
| T19L | -0.184 ± 0.037 |
| T19N | -0.557 ± 0.14 |
| T19W | -0.743 ± 0.11 |
| T19M | -0.176 ± 0.059 |
| T19C | 0.061 ± 0.053 |
| T19V | -0.011 ± 0.035 |

| Variant | abundance fitness |
| --- | --- |
| N69T | 0.011 ± 0.048 |
| N69M | -0.022 ± 0.048 |
| N69D | -0.033 ± 0.07 |
| N69I | -0.089 ± 0.081 |
| N69A | 0.006 ± 0.042 |
| Y15R | -0.152 ± 0.036 |
| Y15C | -0.153 ± 0.06 |
| R42V | 0.033 ± 0.036 |
| R42N | 0.093 ± 0.071 |
| R42T | 0.036 ± 0.043 |
| M68Q | -0.999 ± 0.18 |
| M68L | -0.133 ± 0.035 |
| M68Y | -0.215 ± 0.085 |
| Q65Y | -0.09 ± 0.066 |
| Q65T | -0.086 ± 0.042 |
| Q65S | -0.009 ± 0.038 |
| Q65P | -0.567 ± 0.079 |
| Q65G | -0.06 ± 0.039 |
| Q65F | -0.045 ± 0.065 |
| Q65K | -0.052 ± 0.045 |
